What was measured:
[1] = biological target: T1, DMRT3 (mouse, UniProt Q80WT2 1-476); experiment: EMSA supershift; mainly dimer; 9E10; EMSA: 10 mM Tris-HCl pH 7.9, 100 mM KCl, 10% glycerol, 5 mM MgCl2, 1 mM spermidine, 0.075% Triton-X-100, 1 mM DTT, 1 ug BSA, 0.1 ug dI-dC, 75 ng plasmid DNA, 0.5 ng probe, 4 ul IVT mix in 20 ul, on ice 10 min; gel at 4 C; IVT with 20 uM ZnSO4; details: protein: ivt; tags: N-terminal Myc; label: 32P (Klenow fill-in); 5' overhang 4 nt both ends (filled in on labeling)
T1 sequence (Q80WT2 whole entry): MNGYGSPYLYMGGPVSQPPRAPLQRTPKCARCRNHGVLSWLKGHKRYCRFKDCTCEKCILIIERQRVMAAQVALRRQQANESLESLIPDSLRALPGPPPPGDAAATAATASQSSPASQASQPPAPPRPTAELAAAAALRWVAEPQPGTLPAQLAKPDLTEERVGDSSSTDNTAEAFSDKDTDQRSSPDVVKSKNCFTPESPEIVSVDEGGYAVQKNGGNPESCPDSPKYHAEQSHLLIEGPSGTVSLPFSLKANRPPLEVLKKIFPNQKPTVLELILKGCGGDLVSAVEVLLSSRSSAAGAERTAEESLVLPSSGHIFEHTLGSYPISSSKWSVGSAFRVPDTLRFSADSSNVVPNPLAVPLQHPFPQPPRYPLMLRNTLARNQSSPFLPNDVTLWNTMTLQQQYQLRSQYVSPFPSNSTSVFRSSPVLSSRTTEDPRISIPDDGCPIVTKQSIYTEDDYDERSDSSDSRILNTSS

[2] = biological target: DMRT4 (mouse, UniProt Q8CFG4 1-490); experiment: EMSA; complex fails to enter gel (possible aggregate); EMSA: 10 mM Tris-HCl pH 7.9, 100 mM KCl, 10% glycerol, 5 mM MgCl2, 1 mM spermidine, 0.075% Triton-X-100, 1 mM DTT, 1 ug BSA, 0.1 ug dI-dC, 75 ng plasmid DNA, 0.5 ng probe, 4 ul IVT mix in 20 ul, on ice 10 min; gel at 4 C; IVT with 20 uM ZnSO4; details: protein: ivt; tags: C-terminal Myc; chain copies: 2; label: 32P (Klenow fill-in); 5' overhang 4 nt both ends (filled in on labeling)
Sequence of DMRT4 (Q8CFG4 whole entry): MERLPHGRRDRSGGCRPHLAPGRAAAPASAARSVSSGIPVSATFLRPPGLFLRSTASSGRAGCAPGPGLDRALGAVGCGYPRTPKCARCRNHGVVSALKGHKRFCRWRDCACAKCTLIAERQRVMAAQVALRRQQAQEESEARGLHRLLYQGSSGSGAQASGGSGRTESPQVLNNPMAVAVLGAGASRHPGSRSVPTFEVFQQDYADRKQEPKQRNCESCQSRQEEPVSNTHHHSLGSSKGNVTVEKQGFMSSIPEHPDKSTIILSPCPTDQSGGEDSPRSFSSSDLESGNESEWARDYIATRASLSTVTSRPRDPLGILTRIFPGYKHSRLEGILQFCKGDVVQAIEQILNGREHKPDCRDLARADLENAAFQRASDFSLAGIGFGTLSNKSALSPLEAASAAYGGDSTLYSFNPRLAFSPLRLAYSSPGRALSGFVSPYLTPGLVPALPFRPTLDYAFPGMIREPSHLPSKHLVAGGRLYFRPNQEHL

[3] = biological target: T2, DMRT5 (mouse, UniProt A2A9A2 1-531); experiment: EMSA supershift; 9E10; EMSA: 10 mM Tris-HCl pH 7.9, 100 mM KCl, 10% glycerol, 5 mM MgCl2, 1 mM spermidine, 0.075% Triton-X-100, 1 mM DTT, 1 ug BSA, 0.1 ug dI-dC, 75 ng plasmid DNA, 0.5 ng probe, 4 ul IVT mix in 20 ul, on ice 10 min; gel at 4 C; IVT with 20 uM ZnSO4; details: protein: ivt; tags: N-terminal Myc; label: 32P (Klenow fill-in); 5' overhang 4 nt both ends (filled in on labeling)
T2 sequence (A2A9A2 whole entry): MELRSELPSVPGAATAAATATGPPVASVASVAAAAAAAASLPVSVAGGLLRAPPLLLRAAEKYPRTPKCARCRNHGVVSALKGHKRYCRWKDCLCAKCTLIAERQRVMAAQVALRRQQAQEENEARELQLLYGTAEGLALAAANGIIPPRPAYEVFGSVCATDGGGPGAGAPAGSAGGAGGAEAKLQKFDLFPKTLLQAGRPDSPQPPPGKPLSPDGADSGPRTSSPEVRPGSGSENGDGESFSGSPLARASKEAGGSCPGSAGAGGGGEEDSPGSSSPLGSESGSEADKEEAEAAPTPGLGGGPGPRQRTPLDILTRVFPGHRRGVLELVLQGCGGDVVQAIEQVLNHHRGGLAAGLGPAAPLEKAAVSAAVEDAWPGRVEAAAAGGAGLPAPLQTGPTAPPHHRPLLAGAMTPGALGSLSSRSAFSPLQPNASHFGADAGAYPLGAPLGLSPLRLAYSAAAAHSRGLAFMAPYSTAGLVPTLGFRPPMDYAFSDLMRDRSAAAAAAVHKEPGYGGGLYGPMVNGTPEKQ

[4] = biological target: T2, DMRT5; experiment: competition; 40-fold excess; tolerated; EMSA: 10 mM Tris-HCl pH 7.9, 100 mM KCl, 10% glycerol, 5 mM MgCl2, 1 mM spermidine, 0.075% Triton-X-100, 1 mM DTT, 1 ug BSA, 0.1 ug dI-dC, 75 ng plasmid DNA, 0.5 ng probe, 4 ul IVT mix in 20 ul, on ice 10 min; gel at 4 C; IVT with 20 uM ZnSO4; details: protein: ivt; tags: N-terminal Myc; 5' overhang 4 nt both ends
[5] = biological target: T1, DMRT3; experiment: EMSA supershift; primarily monomer; 9E10; EMSA: 10 mM Tris-HCl pH 7.9, 100 mM KCl, 10% glycerol, 5 mM MgCl2, 1 mM spermidine, 0.075% Triton-X-100, 1 mM DTT, 1 ug BSA, 0.1 ug dI-dC, 75 ng plasmid DNA, 0.5 ng probe, 4 ul IVT mix in 20 ul, on ice 10 min; gel at 4 C; IVT with 20 uM ZnSO4; details: protein: ivt; tags: N-terminal Myc; label: 32P (Klenow fill-in); 5' overhang 4 nt both ends (filled in on labeling)

B1: 1RE (Figure 2) (dsDNA)
DNA 1: TCGAGCCCGCAACAATGTTGCAAATC
DNA 2: TCGAGATTTGCAACATTGTTGCGGGC
B1: binds [1]; binds [2]; binds [3].

B2: DMRT1 site -8G (dsDNA)
DNA 1: TCGAGATGTGATACATTGTTGC
DNA 2: TCGAGCAACAATGTATCACATC
B2: binds [4].

B3: 3RE (dsDNA)
DNA 1: TCGAGAACAATGTAACAATTTCGCCC
DNA 2: TCGAGGGCGAAATTGTTACATTGTTC
B3: binds [5].

Reference: PMC1931443, “Vertebrate DM domain proteins bind similar DNA sequences and can heterodimerize on DNA”
